Literature values as cited in publication PMC2683937.

What was measured:
[1] = target: BMP4 (Homo sapiens) (UniProt P12644)
[2] = target: TGF-β1 (Homo sapiens) (UniProt P01137)
UniProt P01137, sequence (P01137 279-390): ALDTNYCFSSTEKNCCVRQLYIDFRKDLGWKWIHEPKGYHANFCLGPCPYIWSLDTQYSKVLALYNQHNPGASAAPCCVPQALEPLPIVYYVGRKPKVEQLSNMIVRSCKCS

UniProt P12644, sequence (P12644 293-408): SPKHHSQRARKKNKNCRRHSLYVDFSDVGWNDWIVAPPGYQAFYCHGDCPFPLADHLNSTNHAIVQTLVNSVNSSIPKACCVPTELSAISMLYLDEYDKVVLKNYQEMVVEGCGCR

- Kd [1]: 5 nM
- Kd [2]: 30 nM
Substance: CCN2 (from UniProt P29279)
